{
  "source": "paper PMC2842088",
  "about": "(Biochemistry, 2009)",
  "key": {"HpxO": {"target": "T1, HpxO (Klebsiella pneumoniae, UniProt A6T923)", "T1 sequence (A6T923 1-384)": "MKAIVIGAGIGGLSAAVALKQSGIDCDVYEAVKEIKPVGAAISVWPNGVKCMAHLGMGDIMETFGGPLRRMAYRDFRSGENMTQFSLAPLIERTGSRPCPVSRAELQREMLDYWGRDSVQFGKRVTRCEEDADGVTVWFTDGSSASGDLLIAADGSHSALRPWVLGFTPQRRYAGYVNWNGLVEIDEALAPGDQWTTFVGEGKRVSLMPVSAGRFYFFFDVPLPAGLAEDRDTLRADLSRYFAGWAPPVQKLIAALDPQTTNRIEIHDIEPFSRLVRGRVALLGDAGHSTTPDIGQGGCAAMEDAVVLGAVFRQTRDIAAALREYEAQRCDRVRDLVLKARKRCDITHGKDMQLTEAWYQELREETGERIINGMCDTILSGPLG", "test": "steady-state rate against NADPH, no saturation", "assay_type": "biochemical", "settings": "read-out: Km,NADPH; urate as co-substrate; printed as lower limit"}, "purified protein": {"substrate": "O=c1[nH]c(=O)c2[nH]c(=O)[nH]c2[nH]1", "test": "purified protein", "assay_type": "biochemical, Klebsiella pneumoniae", "settings": "NADH as co-substrate, saturating (1.5 mM)"}},
  "data": [
    {"molecule": "NC(=O)C1=CN([C@@H]2O[C@H](COP(=O)(O)OP(=O)(O)OC[C@H]3O[C@@H](n4cnc5c(N)ncnc54)[C@H](OP(=O)(O)O)[C@@H]3O)[C@@H](O)[C@H]2O)C=CC1", "note": "[NADPH]", "values": [
      {"measurement": "Km", "setting": "HpxO", "value": "> 1000", "unit": "µM"}
    ]},
    {"molecule": "HpxO (Klebsiella pneumoniae subsp. pneumoniae MGH 78578) (protein) MKAIVIGAGIGGLSAAVALKQSGIDCDVYEAVKEIKPVGAAISVWPNGVKCMAHLGMGDIMETFGGPLRRMAYRDFRSGENMTQFSLAPLIERTGSRPCPVSRAELQREMLDYWGRDSVQFGKRVTRCEEDADGVTVWFTDGSSASGDLLIAADGSHSALRPWVLGFTPQRRYAGYVNWNGLVEIDEALAPGDQWTTFVGEGKRVSLMPVSAGRFYFFFDVPLPAGLAEDRDTLRADLSRYFAGWAPPVQKLIAALDPQTTNRIEIHDIEPFSRLVRGRVALLGDAGHSTTPDIGQGGCAAMEDAVVLGAVFRQTRDIAAALREYEAQRCDRVRDLVLKARKRCDITHGKDMQLTEAWYQELREETGERIINGMCDTILSGPLG", "values": [
      {"measurement": "Km", "setting": "purified protein", "value": "42 ± 8", "unit": "µM"},
      {"measurement": "kcat", "setting": "purified protein", "value": "42 ± 2", "unit": "s⁻¹"}
    ]}
  ]
}
